Experimental data reported in the RNAGym collection of RNA variant scans (doi:10.1073/pnas.2313332121).
Variants at the floor of the assay were thinned out.

B1: TPR 5TU (parent)
chain: GGAUCUUCUCGAUCUAACAAAAAAGACAAAUCUGCCACAAAGCUUGAGAGCAUCUUCGGAUGCAGAGGCGGCAGCCUUCGGUGGCGCGAUAGCGCCAACGUUCUCAACUAUGACACGCAAAACGCGUGCUCCGUUGAAUGGAGUUUAUCAUG

Variants of: B1
Test: polymerase ribozyme fitness, log enrichment relative to wild type (log ratio); higher = more active; in vitro selection for triplet polymerase activity
Summary of the method: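 Mutant libraries of each subunit of a heterodimeric triplet polymerase ribozyme were built by PCR and transcribed. Each library went through one round of in vitro selection in triplicate: annealing with biotinylated primer, partner subunit and triplets, frozen incubation at −7 °C, gel excision of extended constructs, streptavidin-bead capture and RT-PCR. Input and output libraries were Illumina-sequenced; only genotypes with ≥10 input reads and ≥1 read per output were kept. Fitness is log2(genotype enrichment/wild-type enrichment), using inverse-variance-weighted replicate averages.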

Row | Variant | polymerase ribozyme fitness (log ratio)
1 | C123U A137G | -0.927
2 | G140U U145C | -3.66
3 | A120C G152A | -2.33
4 | G136A | 0.579
5 | G136U | -1.9
6 | G136C | -2.62
7 | G124A U127C | -2.79
8 | U148G A150G | -3.79
9 | G141A U146C | 0.27
10 | U127G U145G | ≤ -4.2
11 | C108U | -2.43
12 | G128A U146G | -4.16
13 | C125G U134A G140A | ≤ -4.2
14 | A142C | -0.793
15 | A142G | -0.833
16 | A142U | -0.482
17 | A119G G143A | 1.13
18 | A113U | -1.59
19 | A113G | -0.894
20 | A113C | -2.35
21 | U144G U148G | -3.38
22 | C116U A142C | -1.1
23 | C125G G126A | -3.42
24 | C116U C118G | 0.0696

Row | Variant | polymerase ribozyme fitness (log ratio)
25 | C116U A120G | -0.0851
26 | A142U U144C | -3.6
27 | A113C U135A G136A | -4.05
28 | U139A U146A | ≤ -4.2
29 | G126A U148C | -2.93
30 | C116U G141A U146C | 0.219
31 | A122U G136U | -2.24
32 | A137C A150G | -4.17
33 | G136C A142C U146A | -2.66
34 | U144C A147G | -0.508
35 | U109A U135C | -3.36
36 | A119U U148A | -3.01
37 | A113U U134C | -2.77
38 | U151G G152U | -3.49
39 | U139G | -0.159
40 | U139C | -2.57
41 | U139A | -3.57
42 | C114G G133C | -3.93
43 | U146A U148A | -3.37
44 | A115U A142C | -3.39
45 | A121U U135A | -0.658
46 | C118U G124U A142C | -1.96
47 | A142U U146G | -1.2
48 | G126A U135C | -1.38

Row | Variant | polymerase ribozyme fitness (log ratio)
49 | C116G A122G | -0.408
50 | G136A G141U | 1.57
51 | C118G A122G | -0.988
52 | U148A | -2.72
53 | U148G | -3.37
54 | U148C | -1.53
55 | G128A U139G | -4.08
56 | A121U G141A | 0.973
57 | A120C | -0.331
58 | A120U | -0.233
59 | A120G | 0.00404
60 | A110G U144G | -3.13
61 | A147C U148A | -3.81
62 | C125U U145A | -1.23
63 | C123G G141C | -0.168
64 | U109C | -2.81
65 | U109G | -0.578
66 | U109A | -1.11
67 | U135C G141U | -1.69
68 | A119C U139C A142C | -4.13
69 | A120U U148G | -3.59
70 | A121U U127C G143C | -4.06
71 | C132A G143U | ≤ -4.2
72 | C131U U146C G152C | -1.2

Row | Variant | polymerase ribozyme fitness (log ratio)
73 | C118U U145G | -1.09
74 | A115U U134G | -3.31
75 | U109C G117A U146A | -3.86
76 | C108U U146A | -2.84
77 | A110G G117A U144A | -4.15
78 | A113U U127C | -2.98
79 | G133U G141U | -2.6
80 | G133U G141C | -3.81
81 | G133A A142G | ≤ -4.2
82 | A107U A120U C123A | -3.58
83 | A122U | -0.218
84 | A122G | -0.303
85 | A122C | -0.398
86 | U127A U139G G152U | ≤ -4.2
87 | A137C U144A U146A | -3.95
88 | G128U U139A A142G | -4.07
89 | U109G C116U | -1.39
90 | U127A U144C | -3.74
91 | C118A U139G | -0.933
92 | C116A U148A | -3.52
93 | A137G U148A | -3.67
94 | A110C G140A | ≤ -4.2
95 | G128U U139C | -3.96
96 | U127G G143A A147G | ≤ -4.2
